From US20200017862
Where a chain is given by its changes, count along the chain named. Numbers in names are those of the source.

Columns and labels:
[1] = biological target: WT His-tagged PCNA (recombinant Xenopus PCNA), P18248
[2] = biological target: LI PCNA (His-tagged mutant Xenopus PCNA), P18248
[3] = biological target: PK PCNA (P253A-K254A PCNA, His-tagged), P18248
[4] = biological target: LIPK PCNA (L126A-I128A-P253A-K254A PCNA, His-tagged), P18248
[5] = biological target: PCNA, endogenous, in Xenopus egg extract (HSS), P18248
Chain of PCNA, endogenous, in Xenopus egg extract (HSS), P18248 (P18248 whole entry): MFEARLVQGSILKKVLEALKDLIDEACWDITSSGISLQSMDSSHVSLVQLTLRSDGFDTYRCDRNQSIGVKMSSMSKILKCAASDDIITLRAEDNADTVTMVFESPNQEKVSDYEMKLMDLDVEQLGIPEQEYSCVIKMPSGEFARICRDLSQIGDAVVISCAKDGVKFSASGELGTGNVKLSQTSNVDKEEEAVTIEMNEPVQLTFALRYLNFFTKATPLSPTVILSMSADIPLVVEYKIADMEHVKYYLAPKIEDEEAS

Chain of WT His-tagged PCNA (recombinant Xenopus PCNA), P18248 (P18248 whole entry): as above
Chain of PK PCNA (P253A-K254A PCNA, His-tagged), P18248 (P18248 whole entry P253A/K254A): as the sequence (P18248 whole entry) above, with P253A, K254A counted along it
Chain of LI PCNA (His-tagged mutant Xenopus PCNA), P18248 (P18248 other isoform, or with tags, fused parts or gaps mutant): as the sequence (P18248 whole entry) above, with L126A, I128A counted along it
Chain of LIPK PCNA (L126A-I128A-P253A-K254A PCNA, His-tagged), P18248 (P18248 whole entry L126A/I128A/P253A/K254A): as the sequence (P18248 whole entry) above, with L126A, I128A, P253A, K254A counted along it

B1: GST-APE2 (recombinant GST-tagged Xenopus APE2) (protein)
chain: MKIVSWNINGIRATRVGLKETLDSLDADIICLQETKVTRDLLDEPSAIVEGYNSYFSFSRVRSGYSGVATFCKSSTTPQAAEEGLSGVFCNRTGSVGCYGNTEQFLEEELQSLDQEGRAVLTQHRILNCEDKEETLTVINVYCPRADPEKPERKTYKLRFYHLLQTRAEAILQNGGHVIILGDVNTSHRPLDHCDPTDLETFEENPGRQWLNQFLGDPIPSQKGDSETVMPPSAGSGLFYDSFRYFHPTQKNAFTCWCSASGARQTNYGTRIDYILGNRELVESEFLDSVIMPEVEGSDHCPVKAFMKCQPIAANKCPPLCTKYLPEFAGRQQKLLQFLVKKENTLGNTTEESSELTGTPSFTEGADISTVRKRPSDKLNSTSKKKSKIVTKNGQGNLLSFFKPERQKLTMATECNPIEVPICKKEKTVQKDLQPATPAVKYNKPQTAFWKSLLKGPPPPPNCKGHSEPCVLRTVKKAGPNCGRQFYVCARPEGHSSNPQARCNFFLWLTKKAGCED
- exonuclease activity on FAM-labeled gapped dsDNA (Type I resected products), purified proteins in vitro [1]: The gapped dsDNA was catalyzed into Type I resected products by recombinant APE2 with the presence of WT PCNA, but not LIPK PCNA, LI PCNA, or PK PCNA
- exonuclease activity on FAM-labeled gapped dsDNA (Type I resected products), purified proteins in vitro [2]: The gapped dsDNA was catalyzed into Type I resected products by recombinant APE2 with the presence of WT PCNA, but not LIPK PCNA, LI PCNA, or PK PCNA
- exonuclease activity on FAM-labeled gapped dsDNA (Type I resected products), purified proteins in vitro [3]: The gapped dsDNA was catalyzed into Type I resected products by recombinant APE2 with the presence of WT PCNA, but not LIPK PCNA, LI PCNA, or PK PCNA
- exonuclease activity on FAM-labeled gapped dsDNA (Type I resected products), purified proteins in vitro [4]: The gapped dsDNA was catalyzed into Type I resected products by recombinant APE2 with the presence of WT PCNA, but not LIPK PCNA, LI PCNA, or PK PCNA

B2: WT Myc-APE2 (recombinant Myc-tagged Xenopus APE2) (protein)
chain: B1 chain
- 3'-5' SSB end resection of FAM-SSB in APE2-depleted HSS [5]: VVT APE2 but not C470A APE2 rescued the deficiency of SSB end resection of FAM-SSB in APE2-depleted HSS
- SSB-induced Chk1 phosphorylation in APE2-depleted HSS [5]: WT, but not C470A, APE2 was found to rescue the SSB-induced Chk1 phosphorylation in APE2-depleted HSS
- hydrogen peroxide-induced Chk1 phosphorylation in APE2-depleted LSS [5]: VVT APE2, but not G483A-R484A APE2, rescued the hydrogen peroxide-induced Chk1 phosphorylation in APE2-depleted LSS system
- recruitment of RPA32, ATR, ATRIP, TopBP1, and Rad9 to SSB plasmid in APE2-depleted HSS [5]: WT APE2, but not C470A APE2, rescued the recruitment of RPA32, ATR, ATRIP, TopBP1, and Rad9 to SSB in APE2-depleted HSS

B3: G483A-R484A Myc-APE2 (protein)
chain: B1 chain with G483A, R484A
- SSB-induced Chk1 phosphorylation in APE2-depleted HSS [5]: G483A-R484A APE2, which is deficient in interaction with ssDNA and PCNA CTM motif (FIGS. 12D and 12E), also failed to rescue the SSB-induced Chk1 phosphorylation in APE2-depleted HSS
- hydrogen peroxide-induced Chk1 phosphorylation in APE2-depleted LSS [5]: VVT APE2, but not G483A-R484A APE2, rescued the hydrogen peroxide-induced Chk1 phosphorylation in APE2-depleted LSS system

B4: C470A Myc-APE2 (protein)
chain: B1 chain with C470A
- 3'-5' SSB end resection of FAM-SSB in APE2-depleted HSS [5]: VVT APE2 but not C470A APE2 rescued the deficiency of SSB end resection of FAM-SSB in APE2-depleted HSS
- SSB-induced Chk1 phosphorylation in APE2-depleted HSS [5]: WT, but not C470A, APE2 was found to rescue the SSB-induced Chk1 phosphorylation in APE2-depleted HSS
- recruitment of RPA32, ATR, ATRIP, TopBP1, and Rad9 to SSB plasmid in APE2-depleted HSS [5]: WT APE2, but not C470A APE2, rescued the recruitment of RPA32, ATR, ATRIP, TopBP1, and Rad9 to SSB in APE2-depleted HSS
